# B1: mAb3-2 (antibody, V domains shown)
# VH: EVQLLESGGGLVQPGGSLRLSCAASGFTFSNYAMSWVRQAPGKGLEWVSLISGSGGSIDYADSVKGRFTISRDNSKNTLYLQMDSLRAEDTAVYYCSKDPIYYDLSGYYAGRIYYFDYWGQGTLVTVSS
# VL: EIVMTQSPATLSVSPGDTATLSCRASHSVSRDLAWYQQKPGQAPRLLIYDASTRATGIPARFSGSGSGTEFTLTISSLQSEDFAVYYCQQYINWVTFGPGTKVDIE
# B2: mAb2-6 (antibody, V domains shown)
# VH: VQLLESGGALVQPGGSLRLSCAASGFSFSNYAMSWVRQAPGKGLEWVSTISASGGTTYFADSVKGHFTISRDNSKNTLYLQMDSLRAEDTAVYYCAKDPNYYDLSGYFLGGYYFDYWGQGTLVTVSS
# VL: EIVLTQSPGTLSLSPGERATLSCRASQSVRSSYLAWYQQKPGQAPRLLIYGASSRATDIPDRFSGSGSGTDFTLTISRLEPEDFAVYYCQQYGTSPAFGGGTKV
# B3: mAb3-7 (antibody, V domains shown)
# VH: QVQLQESGPGLVKPSETLSLTCTVSGGSISNYYWNWIRQPPGKGLEWIGYVHYSGSTNYNPSLKSRVSVSVDTSKNQFSLNLGSVTAADTAVYYCARQSRSYYNEVITDPKYNFDYWGQGTLVTVSS
# VL: QSALTQPASVSGSPGQSITISCTGTSSDVGGYDYVSWYQQHPGKAPKLMIYDVSNRPSGVSNRFSGSKSGNTASLTISGLQAEDEADYYCSSYTSISTLVFGGGTKLTVL
# B4: mAb3-6 (antibody, V domains shown)
# VH: EVQLVESGGGLVQPGGSLRLSCSASGFHFSSYEMNWVRQAPGKGLEWVSYISSSGTYIDYADSVKGRFTISRDNPANSLYLQMYSLRAEDTAVYYCARRLWFGELPYSYYYGMDVWGQGTTVTVSS
# VL: ALTQPASVSGSPGQSITISCTGTSSDIGGYNYVSWYQQHPGKAPELLIFDVSNRPSGVSNRFSGSKSGNTASLTISGLQAEDEADYHCCSYTRTSTVIFGGGTKLTVL
# B5: mAb2-5 (antibody, V domains shown)
# VH: EVQLVESGGGLVKPGGSPRLSCAASGFNFGSYSMNWVRQAPGKGLEWVSSISSSSSYIYYADSVKGRFTISRDNAKHSLYLQVNSLRAEDTAVYYCARDPTTYGYNSAWDKKGWYFDLWGRGTLLTVS
# VL: VLTQPPSVSAAPGQMVTISCSGSSSNIGNDYISWYQQLPGTAPKLLIYDNNERPSGIPDRFSGSKSGTSATLGITGVQTGDEADYYCGTWDSSLSAWVFGEGTKLTVV
# B6: mAb3-4 (antibody, V domains shown)
# VH: AVESGGGLVKPGGPLRLSCAASGFSLSDNYMTWIRQAPGKGLEWVSYISSSGSFINYADSVKGRFTISRDNAKNSLYLQMNSLRAEDTAVYYCARVLSSGGLTTSWRALWYFDVWGRGTLVTVS
# VL: TVVTQEPSFSVSPGGTVTLTCGLTSGSVSTSYYPSWYQQTPGQTPRTLIYSTNIRSSGVPDRFSGSILGNKAALTITGAQADDECDYYCVLYMGSGIWVFGGGTKLTVL
# B7: mAb3-3 (antibody, V domains shown)
# VH: QVQLQESGPGLVKSSETLSLTCTVSGESISSSSHYWGWIRQPPGKGLEFLGNVYYLGSTYYNPSLESRVTILLDTSKNQFSLKVNSVTVADTAVYYCARHGAGSYSGLFFDYWGQGARVIVSS
# VL: DIQMTQSPSFVSASVGDRVNITCRASQGINSWLAWYQQKPGKAPKLLIYSASSLQSGVPSRFSGSGSGTDFTLTISTLQPEDFATYYCQQANSFPYTFGQGTKVD
# B8: mAb3-1 (antibody, V domains shown)
# VH: EVQLLESGGGLVQPGGSLRLSCEASGFTFSRYPMNWVRQAPGKGLEWVSHISASGGTTYYADTVKGRFSISRDNSKNTLYLEMNSLRAEDTAIYFCAKDYPPDEVTMIVVGMPYFDSWGLGTLVSVSS
# VL: not shown
# B9: mAb3-5 (antibody, V domains shown)
# VH: EVQLVESGGGLVQPGGSLRLSCAASGFTFSNYGMNWVRQAPGKGLEWVSYISSGGTIYYADSVKGRFTISRDNAKNSVYLQMNSLRAEDTAVYYCARDPAYCGDDCYTIPAHYFDYWGQGTPVTVS
# VL: DIQMTQSPSSLSASVGDRVTITCRTSQSISRYLNWYQQKPGKAPKLLIYAASSLQSGVPSRFTGSGSGTDFTLTISSLQPEDFATYYCQQSYSIPPVTFGQGTRVD
# Target: T1, AAV9 capsid (adeno-associated virus serotype 9, UniProt Q6JC40)
# T1 construct: also called wtAAV9; AAV9 vector; copies: 60
# Test: far-Western, overlay or dot blot; native dot immunoblot: native capsids adsorbed onto nitrocellulose; human mAbs at ~1 µg/ml in PBS with 6% milk, 0.1% Tween-20, 1 h; anti-human-HRP
# Conditions: both partners purified
row,Binder,binding result
1,B1,binds
2,B2,binds
3,B3,binds
4,B4,binds
5,B5,binds
6,B6,binds
7,B7,binds
8,B8,binds
9,B9,binds

# Source: publication PMC12009303, “Structural characterization of antibody-responses following Zolgensma treatment for AAV capsid engineering to expand patient cohorts” (Nature Communications, 2025)
